± gives the uncertainty stated by the source.
B1: Ankyrin-2, residues 3571 to 3650; numbered along this chain, Q01484 (parent)
chain: ERLAYIADHLGFSWTELARELDFTEEQIHQIRIENPNSLQDQSHALLKYWLERDGKHATDTNLVECLTKINRMDIVHLME

Variants of: B1
Experiment: abundance fitness (aPCA) (normalised: wild type 0, dead -1); higher = more abundant; growth selection in yeast, the domain comes from the species named
Settings: Homo sapiens

Row | Variant | abundance fitness
1 | ERLAYIADHWGFSWTELARELDFTEEQIHQIRIENPNSLQDQSHALLKYWLERDGKHATDTNLVECLTKINRMDIVHLME [L10W] | -0.498 ± 0.13
2 | ERLAYIADHMGFSWTELARELDFTEEQIHQIRIENPNSLQDQSHALLKYWLERDGKHATDTNLVECLTKINRMDIVHLME [L10M] | -0.205 ± 0.11
3 | ERLAYIADHCGFSWTELARELDFTEEQIHQIRIENPNSLQDQSHALLKYWLERDGKHATDTNLVECLTKINRMDIVHLME [L10C] | -0.184 ± 0.11
4 | ERLAYIADHSGFSWTELARELDFTEEQIHQIRIENPNSLQDQSHALLKYWLERDGKHATDTNLVECLTKINRMDIVHLME [L10S] | -0.668 ± 0.07
5 | ERLAYIADHRGFSWTELARELDFTEEQIHQIRIENPNSLQDQSHALLKYWLERDGKHATDTNLVECLTKINRMDIVHLME [L10R] | -1.09 ± 0.16
6 | ERLAYIADHAGFSWTELARELDFTEEQIHQIRIENPNSLQDQSHALLKYWLERDGKHATDTNLVECLTKINRMDIVHLME [L10A] | -0.64 ± 0.099
7 | ERLAYIADHPGFSWTELARELDFTEEQIHQIRIENPNSLQDQSHALLKYWLERDGKHATDTNLVECLTKINRMDIVHLME [L10P] | -0.819 ± 0.11
8 | ERLAYIADHVGFSWTELARELDFTEEQIHQIRIENPNSLQDQSHALLKYWLERDGKHATDTNLVECLTKINRMDIVHLME [L10V] | -0.014 ± 0.08
9 | ERLAYIADHGGFSWTELARELDFTEEQIHQIRIENPNSLQDQSHALLKYWLERDGKHATDTNLVECLTKINRMDIVHLME [L10G] | -0.704 ± 0.051
10 | ERLAYIADHQGFSWTELARELDFTEEQIHQIRIENPNSLQDQSHALLKYWLERDGKHATDTNLVECLTKINRMDIVHLME [L10Q] | -0.791 ± 0.28
11 | ERLAYIADHKGFSWTELARELDFTEEQIHQIRIENPNSLQDQSHALLKYWLERDGKHATDTNLVECLTKINRMDIVHLME [L10K] | -0.911 ± 0.37
12 | ERLAYIADHDGFSWTELARELDFTEEQIHQIRIENPNSLQDQSHALLKYWLERDGKHATDTNLVECLTKINRMDIVHLME [L10D] | -0.509 ± 0.2
13 | ERLAYIADHHGFSWTELARELDFTEEQIHQIRIENPNSLQDQSHALLKYWLERDGKHATDTNLVECLTKINRMDIVHLME [L10H] | -0.948 ± 0.37
14 | ERLAYISDHLGFSWTELARELDFTEEQIHQIRIENPNSLQDQSHALLKYWLERDGKHATDTNLVECLTKINRMDIVHLME [A7S] | 0.052 ± 0.33
15 | ERLAYIMDHLGFSWTELARELDFTEEQIHQIRIENPNSLQDQSHALLKYWLERDGKHATDTNLVECLTKINRMDIVHLME [A7M] | -0.045 ± 0.25
16 | ERLAYIPDHLGFSWTELARELDFTEEQIHQIRIENPNSLQDQSHALLKYWLERDGKHATDTNLVECLTKINRMDIVHLME [A7P] | -0.36 ± 0.18
17 | ERLAYIQDHLGFSWTELARELDFTEEQIHQIRIENPNSLQDQSHALLKYWLERDGKHATDTNLVECLTKINRMDIVHLME [A7Q] | -0.089 ± 0.35

Row | Variant | abundance fitness
18 | ERLAYIKDHLGFSWTELARELDFTEEQIHQIRIENPNSLQDQSHALLKYWLERDGKHATDTNLVECLTKINRMDIVHLME [A7K] | -0.041 ± 0.25
19 | ERLAYIWDHLGFSWTELARELDFTEEQIHQIRIENPNSLQDQSHALLKYWLERDGKHATDTNLVECLTKINRMDIVHLME [A7W] | -0.053 ± 0.24
20 | ERLAYIEDHLGFSWTELARELDFTEEQIHQIRIENPNSLQDQSHALLKYWLERDGKHATDTNLVECLTKINRMDIVHLME [A7E] | -0.265 ± 0.21
21 | ERLAYILDHLGFSWTELARELDFTEEQIHQIRIENPNSLQDQSHALLKYWLERDGKHATDTNLVECLTKINRMDIVHLME [A7L] | -0.008 ± 0.11
22 | ERLAYIGDHLGFSWTELARELDFTEEQIHQIRIENPNSLQDQSHALLKYWLERDGKHATDTNLVECLTKINRMDIVHLME [A7G] | 0.12 ± 0.28
23 | ERLAYITDHLGFSWTELARELDFTEEQIHQIRIENPNSLQDQSHALLKYWLERDGKHATDTNLVECLTKINRMDIVHLME [A7T] | 0.029 ± 0.15
24 | ERLAYIRDHLGFSWTELARELDFTEEQIHQIRIENPNSLQDQSHALLKYWLERDGKHATDTNLVECLTKINRMDIVHLME [A7R] | 0.087 ± 0.48
25 | ERLAYIADRLGFSWTELARELDFTEEQIHQIRIENPNSLQDQSHALLKYWLERDGKHATDTNLVECLTKINRMDIVHLME [H9R] | -0.032 ± 0.22
26 | ERLAYIADLLGFSWTELARELDFTEEQIHQIRIENPNSLQDQSHALLKYWLERDGKHATDTNLVECLTKINRMDIVHLME [H9L] | -0.02 ± 0.2
27 | ERLAYIADKLGFSWTELARELDFTEEQIHQIRIENPNSLQDQSHALLKYWLERDGKHATDTNLVECLTKINRMDIVHLME [H9K] | -0.232 ± 0.34
28 | ERLAYIADDLGFSWTELARELDFTEEQIHQIRIENPNSLQDQSHALLKYWLERDGKHATDTNLVECLTKINRMDIVHLME [H9D] | 0.021 ± 0.088
29 | ERLAYIADGLGFSWTELARELDFTEEQIHQIRIENPNSLQDQSHALLKYWLERDGKHATDTNLVECLTKINRMDIVHLME [H9G] | -0.025 ± 0.2
30 | ERLAYIADALGFSWTELARELDFTEEQIHQIRIENPNSLQDQSHALLKYWLERDGKHATDTNLVECLTKINRMDIVHLME [H9A] | -0.113 ± 0.24
31 | ERLAYIADCLGFSWTELARELDFTEEQIHQIRIENPNSLQDQSHALLKYWLERDGKHATDTNLVECLTKINRMDIVHLME [H9C] | 0.006 ± 0.4
32 | ERLAYIADYLGFSWTELARELDFTEEQIHQIRIENPNSLQDQSHALLKYWLERDGKHATDTNLVECLTKINRMDIVHLME [H9Y] | -0.409 ± 0.4
33 | ERLAYIADTLGFSWTELARELDFTEEQIHQIRIENPNSLQDQSHALLKYWLERDGKHATDTNLVECLTKINRMDIVHLME [H9T] | -0.33 ± 0.24
34 | ERLAYIADPLGFSWTELARELDFTEEQIHQIRIENPNSLQDQSHALLKYWLERDGKHATDTNLVECLTKINRMDIVHLME [H9P] | -0.268 ± 0.17

Reference: the Human Domainome abundance scans (Beltran et al. 2025)
